Paper doi:10.1101/2024.05.08.593097
Where two headings read alike, the source gives them in different places.

Tests used:
[1] = target: R358E/K361E-CCaCalpL (Candidatus Cloacimonas acidaminovorans strain Evry)
[2] = target: T1, CalpL (CCaCalpL, SAVED-Lon protease) (Candidatus Cloacimonas acidaminovorans, UniProt B0VHB4 1-506); test: cryo-EM structure
T1 sequence: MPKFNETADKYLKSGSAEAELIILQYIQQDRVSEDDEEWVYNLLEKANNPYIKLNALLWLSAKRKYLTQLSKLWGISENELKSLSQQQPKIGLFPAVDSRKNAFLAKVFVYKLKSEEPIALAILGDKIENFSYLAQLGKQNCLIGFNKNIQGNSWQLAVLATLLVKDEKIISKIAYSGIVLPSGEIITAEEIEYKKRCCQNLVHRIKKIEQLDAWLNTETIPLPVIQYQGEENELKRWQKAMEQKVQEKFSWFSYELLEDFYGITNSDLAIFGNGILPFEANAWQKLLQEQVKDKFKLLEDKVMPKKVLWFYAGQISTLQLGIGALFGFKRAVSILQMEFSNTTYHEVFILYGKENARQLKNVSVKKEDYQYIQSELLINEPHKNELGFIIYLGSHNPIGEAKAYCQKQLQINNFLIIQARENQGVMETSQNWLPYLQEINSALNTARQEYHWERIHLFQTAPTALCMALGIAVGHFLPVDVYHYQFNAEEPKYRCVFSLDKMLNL

[3] = target: T1, CalpL (CCaCalpL, SAVED-Lon protease); test: cryo-EM structure; remark: listed apart in the source
[4] = target: T1, CalpL (CCaCalpL, SAVED-Lon protease); test: cryo-EM structure; remark: listed apart in the source

R358E/K361E-CCaCalpL (enzyme)
ring nuclease activity (cA4 cleavage), reduction against wt-CCaCalpL [1]: > 100 fold

AAAA (structured_RNA, cyclic tetra-adenylate, 3'-5' linked ring closed by phosphodiester) [cA4]
binding result [2]: binds

AAAA (ssRNA, 2',3'-cyclic phosphate at 3' end) [A4>p]
binding result [3]: binds

AAAA (ssRNA, 3'-phosphate) [A4p]
binding result [4]: binds
